Patent US7608691B2, “Antibodies against IL-16 antagonist peptides” (Trustees of Boston University, priority 1999, dated 2009)

T1: IL-16 (Homo sapiens, UniProt Q14005)
T1 construct: Recombinant human IL-16 corresponding to the 121 C-terminal amino biologically active cytokine cleaved from natural pro-IL-16; polyhistidine (pET-30 LIC) (N, cleaved yes); made in house; host or cells: E. coli
T1 sequence (Q14005 1212-1332): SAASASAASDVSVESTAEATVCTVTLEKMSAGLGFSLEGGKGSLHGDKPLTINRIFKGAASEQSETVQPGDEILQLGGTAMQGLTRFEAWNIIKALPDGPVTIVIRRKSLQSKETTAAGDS

T2: natural and recombinant human IL-16 (Homo sapiens, UniProt Q14005)
T2 sequence (Q14005 1212-1332 limits assumed): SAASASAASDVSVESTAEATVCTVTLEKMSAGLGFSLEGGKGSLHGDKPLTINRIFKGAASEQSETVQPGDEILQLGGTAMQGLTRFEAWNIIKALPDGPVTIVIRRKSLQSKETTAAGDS

T3: murine IL-16 (Mus musculus, UniProt O54824)
T3 sequence (O54824 1205-1322 T1262D/E1263R/Q1264T limits assumed): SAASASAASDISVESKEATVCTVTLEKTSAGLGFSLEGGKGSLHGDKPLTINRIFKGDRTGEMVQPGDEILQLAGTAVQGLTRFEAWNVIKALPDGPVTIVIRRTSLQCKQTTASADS


Columns and labels:
IL-16 = biological target: T1, IL-16; assay: Modified Boyden chamber chemotaxis assay: inhibition of IL-16-stimulated T lymphocyte motility; type: cell-based; settings: human T lymphocytes; rIL-16 10^-9, 10^-10 or 10^-11 M; peptide 10 μg/ml; 4 h
Method: (§1) The mononuclear cell layer was washed with medium 199 (M. A. Bioproducts, Walkersville, Md.) supplemented with 0.4% bovine serum albumin, 25 mM HEPES buffer, and 100 U/ml of penicillin and 100 μg/ml streptomycin (M199-HPS). Samples were enriched for T lymphocytes by nylon wool adherence as described (Julius, et al., Eur. J. Immunol. 3:645, 1973). The nonadherent cells were >95% CD3^+ as determined by flow cytometry.
Recombinant human IL-16 corresponding to the 121 C-terminal amino biologically active cytokine cleaved from natural pro-IL-16 was produced in E. coli as a polyhistidine fusion protein using the expression vector pET-30 LIC (Novagen, Madison, Wis.). Following lysis of transformed bacteria, the protein was purified by metal chelation chromatography and the N-terminal polyhistidine tag was removed by cleavage with enterokinase.
A series of oligopeptides derived from the 16 C-terminal of human IL-16 residues were prepared (FIG. 1) and tested for their ability to […] the T lymphocyte motility using a modified Boyden chemotaxis chamber assay.
Human T lymphocytes were loaded in the upper wells, and rIL-16 at concentrations of 10^−9 M, 10^−10 M or 10^−11 M was loaded in the lower wells, in the presence or absence of two 8-mer peptides corresponding to amino acids Arg^106 to Lys^113 (SEQ ID NO:24), and Glu^114 to Ser^121 (SEQ ID NO:46) of IL-16. […] To further define the residues mediating inhibition, the eight residue sequence from Arg^106 to Lys^113 was divided into RRKS (SEQ ID NO:2) and LQSK (SEQ ID NO:48).

[1] = biological target: HIV-1 gp120 (strain HIV-13B) (Human immunodeficiency virus type 1 group M subtype B, UniProt P04578); settings: gp120 0.5, 1.0, 5.0 μg/ml; peptide 10 μg/ml
Method: (§2) Cells were suspended (5×10^6 cells/ml) in M199-HPS and loaded into the upper wells, separated by an 8 μm pore size nitrocellulose membrane from lower wells. […] After a 4 h incubation at 37° C., the membranes were removed and stained with hematoxylin, dehydrated by sequential washes in ethanol and propanol, then washed in xylene to clarify the filter for cell counting by light microscopy. Cell migration was quantified by counting the number of cells in the filter that had moved beyond a depth of 50 μm in five separate fields in duplicate wells for all conditions. Cell counts were compared with unstimulated control cell migration which was normalized to 100%. Results are expressed as mean % control migration and the data analyzed for statistical significance (P<0.05) by Student=s t test.

Leu 3a mAb = assay: Chemotaxis assay: T cell migration in response to anti-CD4 mAb Leu 3a with peptide; type: cell-based; settings: Leu 3a 0.5, 1.0, 5.0 μg/ml; peptide 10 μg/ml
Method: as §2

[2] = biological target: T2, natural and recombinant human IL-16; settings: cited from earlier work
murine IL-16 = biological target: T3, murine IL-16; settings: cited from earlier work
human T lymphocytes = assay: Chemotaxis assay: chemoattractant activity of mutated rIL-16; type: cell-based; settings: 10^-8 to 10^-11 M
Method: as §1
The native IL-16 expression vector (pET-30/L-16^121) was used as a template for PCR mutagenesis to create four recombinant IL-16 (rIL-16) mutant constructs with progressive four amino acid deletions at the C-terminus (C-4 to C-16), as well as deletions of 12 or 22 N-terminal residues. Two double deletion constructs lacking the first 12 or 22 N-terminal residues as well as the last 16 C-terminal residues of IL-16 were also produced. Point mutations in C-terminal residues of rIL-16 were generated by site-directed mutagenesis using the Stratagene Quick Change Kit (Stratagene, La Jolla, Calif.) according to the manufacturer=s specifications. The point mutations included alanine substitution for Arg^106, Arg^107, and Arg^106 plus Arg^107.
IL-16 mutant constructs were created with progressive deletions of 4 C-terminal amino acids from C-4 through C-16 (FIG. 4). The C-12 construct terminates at Ser^108, retaining the RRKS motif. The C-16 construct terminates at Ile^105, deleting RRKS and succeeding downstream residues. These mutant IL-16 molecules were tested in chemotaxis assays.

[3] = tested on: Mixed Lymphocyte Reaction; assay: Inhibition of the one way mixed lymphocyte reaction (MLR); type: cell-based, human; settings: for capacity to inhibit the MLR: responder T lymphocytes pre-treated, 10^-8 to 10^-11 M
Method: Stimulator cells for mixed lymphocyte reactions were prepared by incubating PBMC (10^6/ml) with 25 μg/ml mitomycin C for 30 min. The cells were then washed four times with RPMI 1640 medium supplemented with 25 mM HEPES buffer, 100 U/ml penicillin, and 100 μg/ml streptomycin (RPMI 1640-HPS), then resuspended in RPMI 1640-HPS supplemented with 10% fetal bovine serum (complete medium) at 10^6 cells/ml. Responder cells were prepared from an unrelated donor, suspended in complete medium at 10^6 cells/ml, and pre-incubated (1 h, 37° C.) with control buffer, or with rIL-16 or mutated rIL-16 constructs (10^−9 M to 10^−11 M). Stimulator cells were then added (1:1) and the cell mixtures were transferred in quadruplicate to 96-well round-bottom plates. Cell cultures were pulsed with [^3H] thymidine on day 5, harvested with a Titertek cell harvester, and counted in a Becton Dickinson scintillation counter on day 6. Results are expressed as mean % cpm above background. SEM.
To determine whether other biological activities of IL-16 are mediated by the C-terminal domain, the native and mutated rIL-16 constructs were tested for their capacity of inhibiting the one way MLR. Responder T lymphocytes were pre-treated with rIL-16 or control buffer, then cultured with mitomycin C-treated stimulator PBMC from an unrelated donor. Pre-treatment with 10^−8 M native rIL-16 reduced thymidine incorporation on day 6 by nearly 70%, compared with untreated cells.

Molecule	inhibition of IL-16-stimulated T cell migration (IL-16)	chemoattractant activity of mutated rIL-16 (human T lymphocytes)	also measured
ETTAAGDS [SEQ ID NO:46]	only the Arg^106 to Lys^113 peptide (SEQ ID NO:24) inhibited IL-16		
LQSK	Only RRKS (SEQ ID NO:2) inhibited IL-16 chemoattractant activity		
RRAS	inhibited IL-16 as effectively as the native RRKS		
RRKA	inhibited IL-16 as effectively as the native RRKS		
RRKS	inhibited IL-16 chemoattractant activity		blocking of cell migration in response to HIV-1 gp120 [1]: not blocked; blocking of cell migration in response to divalent anti-CD4 mAb Leu 3a (Leu 3a mAb): not blocked
RRKSLQ	inhibited IL-16-stimulated T cell migration		
RRKSLQSK [SEQ ID NO:24]	inhibited IL-16		
RRKSLQSKETTAAGDS [Arg106 to Ser121, synthetic oligopeptide corresponding to the 16 C-terminal amino acids of human IL-16]			inhibition of chemoattractant activity of natural and recombinant human IL-16 [2]: inhibit the chemoattractant activity; inhibition of chemoattractant activity of murine IL-16 (murine IL-16): inhibit the chemoattractant activity
RSQRLK [SEQ ID NO:47, reference compound]	no inhibitory activity		
C-16: rIL-16 mutant terminating at Ile^105, deleting RRKS and succeeding downstream residues (protein) SAASASAASDVSVESTAEATVCTVTLEKMSAGLGFSLEGGKGSLHGDKPLTINRIFKGAASEQSETVQPGDEILQLGGTAMQGLTRFEAWNIIKALPDGPVTIVI		completely eliminated the chemoattractant activity	shift of the dose response of MLR inhibition versus native rIL-16 [3]: ~1 log; capacity to inhibit the MLR [3]: nearly as active as native rIL-16
Arg^107 alone: rIL-16 point mutation Arg^107 to alanine (protein) SAASASAASDVSVESTAEATVCTVTLEKMSAGLGFSLEGGKGSLHGDKPLTINRIFKGAASEQSETVQPGDEILQLGGTAMQGLTRFEAWNIIKALPDGPVTIVIRAKSLQSKETTAAGDS		completely abrogated chemoattractant activity	
Arg^106 alone: rIL-16 point mutation Arg^106 to alanine (protein) SAASASAASDVSVESTAEATVCTVTLEKMSAGLGFSLEGGKGSLHGDKPLTINRIFKGAASEQSETVQPGDEILQLGGTAMQGLTRFEAWNIIKALPDGPVTIVIARKSLQSKETTAAGDS		retained full activity	
native rIL-16: Recombinant human IL-16, 121 C-terminal amino acids of pro-IL-16, produced in E. coli (protein) SAASASAASDVSVESTAEATVCTVTLEKMSAGLGFSLEGGKGSLHGDKPLTINRIFKGAASEQSETVQPGDEILQLGGTAMQGLTRFEAWNIIKALPDGPVTIVIRRKSLQSKETTAAGDS			reduction of thymidine incorporation in MLR compared with untreated cells ([3]; pre-treatment with 10^-8 M, day 6): ~70%
Arg^106 plus Arg^107: rIL-16 point mutation Arg^106 plus Arg^107 to alanine (protein) SAASASAASDVSVESTAEATVCTVTLEKMSAGLGFSLEGGKGSLHGDKPLTINRIFKGAASEQSETVQPGDEILQLGGTAMQGLTRFEAWNIIKALPDGPVTIVIAAKSLQSKETTAAGDS		completely abrogated chemoattractant activity	
C-12: rIL-16 mutant with deletion of 12 C-terminal residues, retaining the RRKS motif (protein) SAASASAASDVSVESTAEATVCTVTLEKMSAGLGFSLEGGKGSLHGDKPLTINRIFKGAASEQSETVQPGDEILQLGGTAMQGLTRFEAWNIIKALPDGPVTIVIRRKS		active as native rIL-16	
N-12: rIL-16 construct with deletion of 12 N-terminal amino acids (protein) VESTAEATVCTVTLEKMSAGLGFSLEGGKGSLHGDKPLTINRIFKGAASEQSETVQPGDEILQLGGTAMQGLTRFEAWNIIKALPDGPVTIVIRRKSLQSKETTAAGDS		comparable to native IL-16	capacity to inhibit the MLR [3]: reduced but not eliminated
N-22: rIL-16 construct with deletion of 22 N-terminal amino acids (protein) TVTLEKMSAGLGFSLEGGKGSLHGDKPLTINRIFKGAASEQSETVQPGDEILQLGGTAMQGLTRFEAWNIIKALPDGPVTIVIRRKSLQSKETTAAGDS		comparable to native IL-16	capacity to inhibit the MLR [3]: reduced but not eliminated
